The target of this test is HIV-1 integrase (HIV-1).

As for “lens-epithelium derived growth factor (LEDGF/p75) (from UniProt O75475 1-530) (natural protein)”, the LEDGF/p75-dependent activation of in vitro integration into PN (polynucleosome) templates, IN-LEDGF/p75 preformed complex against IN alone (radiolabelled donor, average of four templates) worked out at 5 fold.

Values taken from article PMC4468133.
